The record followed here is US20110039758A1.

Values joined by “and” are separate entries in the source; they are usually repeats but may differ in a detail not shown here. Equal values may be shown once. Ends that are not written are not given here.

Common to all, as to test: G assay
Assay [1] addresses GST-PSD95 PDZ domain 2 (human).
Assay [2] deals with GST-NOS1 (nNOS) PDZ domain (human).
The target in assay [3] is GST-PSD95 PDZ domain 1 (human).
Assay [4] addresses GST-PSD95 PDZ domain 3 (human).

B1: … peptide (peptide)
peptide: KDITSDSENSNFRNEIQSLV
modifications: not checked
For B1, the Average OD in assay [1] worked out at 1.35 OD.

B2: claudin 9 PL peptide (peptide)
peptide: LGYSIPSRSGASGLDKRDYV
modifications: not checked
As for B2, the Average OD in assay [2] was determined as 0.51 OD; in assay [3], 0.82 OD.

B3: CD68 PL peptide (peptide)
peptide: ALVLIAFCIIRRRPSAYQAL
modifications: not checked
As to B3, the Average OD in assay [2] stood at 0.67 OD.

B4: 20 C-terminal amino acids from TAX (peptide)
peptide: QISPGGLEPPSEKHFRETEV
modifications: not checked
B4: the Average OD in assay [1] came out at 2.39 OD.

B5: CD6 PL peptide (peptide)
peptide: SPQPDSTDNDDYDDISAA
modifications: not checked
The molecule B5 returned an Average OD in assay [2] of 0.59 OD.

B6: claudin 7 PL peptide (peptide)
peptide: KAGYRAPRSYPKSNSSKEYV
modifications: not checked
B6: the Average OD in assay [2] is 1.01 OD and 0.93 OD; in assay [3], 1.28 OD and 1.08 OD; in assay [4], 0.92 OD and 0.86 OD.

B7: GLUR7 (metabotropic glutamate receptor) PL peptide (peptide)
peptide: VDPNSPAAKKKYVSYNNLVI
modifications: not checked
As for B7, the Average OD in assay [2] is 0.75 OD and 0.64 OD and 0.59 OD; in assay [3] it was 0.85 OD; in assay [4] it was 0.82 OD.

B8: KIAA 1481 PL peptide (peptide)
peptide: PIPAGGCTFSGIFPTLTSPL
modifications: not checked
Turning to B8, the Average OD in assay [2] came out at 0.71 OD.

B9: AdenoE4 typ9 PL peptide (peptide)
peptide: VGTLLLERVIFPSVKIATLV
modifications: not checked
For B9, in assay [2], the Average OD is 3.64 OD and 2.73 OD and 4 OD.

B10: claudin 1 PL peptide (peptide)
peptide: SYPTPRPYPKPAPSSGKDYV
modifications: not checked
With B10, the Average OD in assay [2] stood at 0.9 OD; in assay [3] it was 0.95 OD; in assay [4], 0.85 OD.

B11: alpha-2C Adrenergic receptor PL peptide (peptide)
peptide: DFRPSFKHILFRRARRGFRQ
modifications: not checked
Take B11: the Average OD in assay [2] was 3.02 OD and 2.09 OD; in assay [3], 2.05 OD and 1.26 OD; in assay [4], 1.72 OD and 1.19 OD.

B12: a-2B Adrenergic receptor PL peptide (peptide)
peptide: QDFRRAFRRILARPWTQTAW
modifications: not checked
Turning to B12, the Average OD in assay [2] is 3.54 OD and 2.52 OD; in assay [3], 1.59 OD and 0.87 OD; in assay [4], 3.74 OD and 2.98 OD.

B13: KV1.3 PL peptide (peptide)
peptide: TTNNNPNSAVNIKKIFTDV
modifications: not checked
For B13, the Average OD is 0.67 OD in assay [2]; 2.28 OD and 1.12 OD in assay [3]; 1.06 OD in assay [1]; 1 OD in assay [4].

B14: CSPG4 (chondroitin sulfae proteoglycan 4, melanoma-associated) PL peptide (peptide)
peptide: ELLQFCRTPNPALKNGQYWV
modifications: not checked
Turning to B14, the Average OD in assay [2] was 2.43 OD and 1.27 OD.

B15: HPV-E6 #18 PL peptide (peptide)
peptide: HSCCNRARQERLQRRRETQV
modifications: not checked
Turning to B15, the Average OD in assay [2] turned out to be 2.14 OD.

B16: Fas Ligand PL peptide (peptide)
peptide: SSKSKSSEESQTFFGLYKL
modifications: not checked
As to B16, the Average OD in assay [2] was 1.99 OD and 1.93 OD; in assay [3], 1.23 OD; in assay [4] it was 1.07 OD.

B17: claudin 2 PL peptide (peptide)
peptide: PGQPPKVKSEFNSYSLTGYV
modifications: not checked
Consider B17, for which the Average OD is 0.69 OD in assay [2]; 1.03 OD and 0.85 OD in assay [3]; 0.79 OD in assay [4].

B18: ephrin A2 PL peptide (peptide)
peptide: RIAYSLLGLKDQVNTVGIPI
modifications: not checked
As to B18, in assay [2], the Average OD was 1.83 OD and 4 OD.

B19: GluR5-2 (rat) PL peptide (peptide)
peptide: SFTSILTCHQRRTQRKETVA
modifications: not checked
Turning to B19, the Average OD was 0.65 OD in assay [2]; 3.12 OD and 2.26 OD in assay [3]; 4 OD in assay [4].

B20: … peptide (peptide)
peptide: LNSSSNRRVYKKMPSIESAV
modifications: not checked
With B20, the Average OD in assay [1] is 3.37 OD and 2.67 OD and 2.29 OD.

B21: Serotonin receptor 3a PL peptide (peptide)
peptide: LAVLAYSITLVMLWSIWQYA
modifications: not checked
In assay [2], B21 had an Average OD of 1.02 OD.

B22: Nectin 2 PL peptide (peptide)
peptide: SSPDSSYQGKGFVMSRAMYV
modifications: not checked
As to B22, the Average OD in assay [2] was 0.54 OD; in assay [3], 1.01 OD; in assay [4] it was 0.91 OD.

B23: catenin-delta 2 PL peptide (peptide)
peptide: PYSELNYETSHYPASPDSWV
modifications: not checked
For the molecule B23, the Average OD in assay [2] was determined as 2.1 OD; in assay [3], 1.18 OD.

B24: CD62E PL peptide (peptide)
peptide: SSSQSLESDGSYQKPSYIL
modifications: not checked
In turn, B24 registered an Average OD in assay [2] of 0.5 OD.

B25: … peptide (peptide)
peptide: TGSALQAWRHTSRQATESTV
modifications: not checked
For the molecule B25, the Average OD in assay [3] worked out at 3.86 OD; in assay [4], 0.78 OD.

B26: noradrenaline transporter PL peptide (peptide)
peptide: HHLVAQRDIRQFQLQHWLAI
modifications: not checked
As to B26, the Average OD in assay [2] is 1.08 OD; in assay [4], 0.82 OD and 0.7 OD.

B27: LPAP PL peptide (peptide)
peptide: AWDDSARAAGGQGLHVTAL
modifications: not checked
In the case of B27, the Average OD in assay [2] is 0.77 OD.

B28: […] (Tat transporter fused to the C-terminal 9 amino acids of NMDA Receptor 2B) (peptide)
peptide: YGRKKRRQRRRKLSSIESDV
modifications: not fully specified
For B28, the Average OD in assay [3] was 3.87 OD and 2.13 OD and 1.4 OD; in assay [1], 4.06 OD and 3.53 OD and 3.1 OD.

B29: … peptide (peptide)
peptide: DGGARTEDEVQSYPSKHDYV
modifications: not checked
As for B29, the Average OD in assay [3] amounted to 1.25 OD; in assay [4] it was 1.05 OD.

B30: Dopamine transporter PL peptide (peptide)
peptide: RELVDRGEVRQFTLRHWLKV
modifications: not checked
Turning to B30, in assay [2], the Average OD is 1.38 OD and 1.27 OD and 1.1 OD.

B31: HPV E6 #35 (cysteine-free) PL peptide (peptide)
peptide: GRWTGRAMSAWKPTRRETEV
modifications: not checked
B31: the Average OD in assay [2] was 0.74 OD and 0.62 OD; in assay [3], 4 OD and 3.08 OD; in assay [1], 2.82 OD; in assay [4], 4 OD.

B32: NMDAR2D C-terminal 20mer peptide (peptide)
peptide: GGDLGTRRGSAHFSSLESEV
modifications: not checked
For B32, the Average OD in assay [3] was 0.86 OD and 0.77 OD; in assay [1], 3.11 OD and 2.22 OD and 1.31 OD.

B33: NMDAR2A C-terminal 20mer peptide (peptide)
peptide: LNSCSNRRVYKKMPSIESDV
modifications: not checked
Take B33: the Average OD in assay [3] was 4.07 OD and 4 OD.

B34: alpha-2A Adrenergic receptor PL peptide (peptide)
peptide: HDFRRAFKKILARGDRKRIV
modifications: not checked
For the molecule B34, in assay [2], the Average OD was 0.96 OD and 0.73 OD.

B35: … peptide (peptide)
peptide: RSGATIPLVGQDIIDLQTEV
modifications: not checked
Molecule B35 returned an Average OD in assay [1] of 1.23 OD.

B36: NMDA Glutamate Receptor 2C (cysteine-free) C-terminal 20mer peptide (peptide)
peptide: TQGFPGPATWRRISSLESEV
modifications: not checked
With B36, the Average OD in assay [2] was 0.49 OD; in assay [1], 3.56 OD and 2.89 OD and 2.07 OD; in assay [4] it was 1.46 OD and 1.17 OD.

B37: MINT-1 PL peptide (peptide)
peptide: KTMPAAMYRLLTAQEQPVYI
modifications: not checked
For B37, in assay [2], the Average OD is 4 OD and 3.76 OD.

B38: beta-2 Adrenergic Receptor PL peptide (peptide)
peptide: VPSDNIDSQGRNASINDSLL
modifications: not checked
In assay [2], B38 came in with an Average OD of 0.85 OD.

B39: HPV-E6 #63 PL peptide (peptide)
peptide: VHKVRNKFKAKCSLCRLYII
modifications: not checked
As to B39, the Average OD in assay [2] is 2.55 OD and 4 OD; in assay [3], 4 OD and 2.67 OD; in assay [1], 4 OD and 2.62 OD; in assay [4] it was 4 OD.
